94 variants from the supplement of paper PMC10567573 can be followed below.

The labels stand for the following.
B1: NEUROD6 (parent)
chain: YHSPELTTPPGHGTLDNSKSMKPY
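Also: lentivirally expressed fusions sorted by FACS into six bins by GFP to DsRed ratio, PSI derived from sequencing read proportions per bin multiplied by bin number.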

This data set covers variants of B1. Nature of the data set: protein stability index of a GFP-peptide fusion (GPS, HEK-293T) (PSI 1-6); higher = more stable. As to conditions: c terminus: a fixed tail appended.
For YHSPELTTPPCHGTLDNSKSMKPY, the protein stability index stood at 2.06. As to YHSPELTTPPAHGTLDNSKSMKPY, the protein stability index amounted to 2.34.

Take YHSPELTTPPDHGTLDNSKSMKPY: the protein stability index amounted to 2.69. The figure for YHSPEYTTPPGHGTLDNSKSMKPY is 1.5; for YHSPERTTPPGHGTLDNSKSMKPY it is 4.02.

With YHSPECTTPPGHGTLDNSKSMKPY, the protein stability index was 2.81. The figure for YHSPEVTTPPGHGTLDNSKSMKPY is 2.39; for YHSPEQTTPPGHGTLDNSKSMKPY it is 3.32; for YHSPEHTTPPGHGTLDNSKSMKPY it is 3.28.

Regarding YHSPETTTPPGHGTLDNSKSMKPY, the protein stability index is 3.28.

For YHSPENTTPPGHGTLDNSKSMKPY, the protein stability index worked out at 3.25.

For YHSPEKTTPPGHGTLDNSKSMKPY, the protein stability index stood at 4.08.

In the case of YHSPEDTTPPGHGTLDNSKSMKPY, the protein stability index came out at 4.05. As to YHSPESTTPPGHGTLDNSKSMKPY, the protein stability index amounted to 3.13. As to YHSPEETTPPGHGTLDNSKSMKPY, the protein stability index is 3.86. Take YHSPEATTPPGHGTLDNSKSMKPY: the protein stability index stood at 2.58. YHSPEMTTPPGHGTLDNSKSMKPY: the protein stability index came out at 2.33.

YHSPEITTPPGHGTLDNSKSMKPY: the protein stability index is 2.63. Consider YHSPEWTTPPGHGTLDNSKSMKPY, for which the protein stability index amounted to 2.97. The figure for YHSPEGTTPPGHGTLDNSKSMKPY is 3.05; for YHSPEFTTPPGHGTLDNSKSMKPY it is 2.85.

Regarding YHSPELNTPPGHGTLDNSKSMKPY, the protein stability index was 2.84. Consider YHSPELHTPPGHGTLDNSKSMKPY, for which the protein stability index is 1.86. Take YHSPELLTPPGHGTLDNSKSMKPY: the protein stability index worked out at 2.3. Consider YHSPELMTPPGHGTLDNSKSMKPY, for which the protein stability index worked out at 3.75. The figure for YHSPELKTPPGHGTLDNSKSMKPY is 2.69; for YHSPELQTPPGHGTLDNSKSMKPY it is 2.39.

For YHSPELWTPPGHGTLDNSKSMKPY, the protein stability index worked out at 3.05. YHSPELVTPPGHGTLDNSKSMKPY: the protein stability index was determined as 2.49.

Take YHSPELPTPPGHGTLDNSKSMKPY: the protein stability index amounted to 3.56. In the case of YHSPELGTPPGHGTLDNSKSMKPY, the protein stability index worked out at 2.97. In the case of YHSPELRTPPGHGTLDNSKSMKPY it was 3.58.

Take YHSPELYTPPGHGTLDNSKSMKPY: the protein stability index came out at 2.55. In the case of YHSPELCTPPGHGTLDNSKSMKPY it was 1.98; in that of YHSPELSTPPGHGTLDNSKSMKPY, 1.96; in that of YHSPELDTPPGHGTLDNSKSMKPY, 3.48. For YHSPELITPPGHGTLDNSKSMKPY, the protein stability index worked out at 2.19. Take YHSPELATPPGHGTLDNSKSMKPY: the protein stability index came to 1.72. Regarding YHSPELFTPPGHGTLDNSKSMKPY, the protein stability index came out at 2.12. Turning to YHSPELETPPGHGTLDNSKSMKPY, the protein stability index amounted to 4.01. As to YHHPELTTPPGHGTLDNSKSMKPY, the protein stability index turned out to be 2.44. For the variant YHVPELTTPPGHGTLDNSKSMKPY, the protein stability index stood at 3.42. Turning to YHCPELTTPPGHGTLDNSKSMKPY, the protein stability index was 2.33. In the case of YHTPELTTPPGHGTLDNSKSMKPY it was 2.77; in that of YHYPELTTPPGHGTLDNSKSMKPY, 2.02; in that of YHIPELTTPPGHGTLDNSKSMKPY, 2.89. In the case of YHFPELTTPPGHGTLDNSKSMKPY it was 1.86; in that of YHAPELTTPPGHGTLDNSKSMKPY, 2.15; in that of YHNPELTTPPGHGTLDNSKSMKPY, 1.56. With YHQPELTTPPGHGTLDNSKSMKPY, the protein stability index came out at 3.12.

For YHMPELTTPPGHGTLDNSKSMKPY, the protein stability index came out at 1.94. Regarding YHGPELTTPPGHGTLDNSKSMKPY, the protein stability index was determined as 3.46. Regarding YHEPELTTPPGHGTLDNSKSMKPY, the protein stability index turned out to be 3.81. For the variant YHLPELTTPPGHGTLDNSKSMKPY, the protein stability index is 2.19. In the case of YHDPELTTPPGHGTLDNSKSMKPY, the protein stability index was 2.82. In the case of YHWPELTTPPGHGTLDNSKSMKPY, the protein stability index was 2.52. YHRPELTTPPGHGTLDNSKSMKPY: the protein stability index is 3.04. With YHKPELTTPPGHGTLDNSKSMKPY, the protein stability index was determined as 3.71. As for MHSPELTTPPGHGTLDNSKSMKPY, the protein stability index turned out to be 4.74. On to SHSPELTTPPGHGTLDNSKSMKPY, for which the protein stability index stood at 4.93. Take GHSPELTTPPGHGTLDNSKSMKPY: the protein stability index amounted to 4.91.

Take WHSPELTTPPGHGTLDNSKSMKPY: the protein stability index was found to be 4.53. In the case of VHSPELTTPPGHGTLDNSKSMKPY it was 4.69; in that of AHSPELTTPPGHGTLDNSKSMKPY, 5.09; in that of CHSPELTTPPGHGTLDNSKSMKPY, 4.53. On to THSPELTTPPGHGTLDNSKSMKPY, for which the protein stability index worked out at 4.76. With FHSPELTTPPGHGTLDNSKSMKPY, the protein stability index was found to be 2.7. Turning to EHSPELTTPPGHGTLDNSKSMKPY, the protein stability index came to 5.28.

As to PHSPELTTPPGHGTLDNSKSMKPY, the protein stability index is 4.37. In the case of NHSPELTTPPGHGTLDNSKSMKPY it was 4.94.

Consider KHSPELTTPPGHGTLDNSKSMKPY, for which the protein stability index is 4.93.

On to RHSPELTTPPGHGTLDNSKSMKPY, for which the protein stability index came out at 4.99. IHSPELTTPPGHGTLDNSKSMKPY: the protein stability index was 4.77. As to DHSPELTTPPGHGTLDNSKSMKPY, the protein stability index is 5.05. Take LHSPELTTPPGHGTLDNSKSMKPY: the protein stability index came out at 4.96.

For the variant QHSPELTTPPGHGTLDNSKSMKPY, the protein stability index amounted to 5.06. The figure for HHSPELTTPPGHGTLDNSKSMKPY is 4.62; for YHSPELTWPPGHGTLDNSKSMKPY it is 1.84. As for YHSPELTHPPGHGTLDNSKSMKPY, the protein stability index amounted to 2.15. With YHSPELTMPPGHGTLDNSKSMKPY, the protein stability index was determined as 1.92. Regarding YHSPELTNPPGHGTLDNSKSMKPY, the protein stability index worked out at 2.52. With YHSPELTYPPGHGTLDNSKSMKPY, the protein stability index came to 2.11. Regarding YHSPELTQPPGHGTLDNSKSMKPY, the protein stability index stood at 2.52. For the variant YHSPELTRPPGHGTLDNSKSMKPY, the protein stability index is 2.35. In the case of YHSPELTGPPGHGTLDNSKSMKPY it was 2.47. Turning to YHSPELTKPPGHGTLDNSKSMKPY, the protein stability index worked out at 2.37.

Consider YHSPELTSPPGHGTLDNSKSMKPY, for which the protein stability index came out at 2. For YHSPELTAPPGHGTLDNSKSMKPY, the protein stability index came to 2.17.

As to YHSPELTIPPGHGTLDNSKSMKPY, the protein stability index was 2.12.

YHSPELTCPPGHGTLDNSKSMKPY: the protein stability index was found to be 2.01. As for YHSPELTEPPGHGTLDNSKSMKPY, the protein stability index was 3.34.

With YHSPELTFPPGHGTLDNSKSMKPY, the protein stability index was 2.43. The figure for YHSPELTDPPGHGTLDNSKSMKPY is 3.14; for YHSPELTLPPGHGTLDNSKSMKPY it is 2.1.
